From article PMC3961685, “Origin of the Proton-transfer Step in the Cofactor-free (1H)-3-Hydroxy-4-oxoquinaldine 2,4-Dioxygenase” (The Journal of Biological Chemistry, 2014) come the findings set out here.

The target of data set [1] is T1, HOD (WT HOD = HOD C69S); (1H)-3-hydroxy-4-oxoquinaldine 2,4-dioxygenase (Paenarthrobacter nitroguajacolicus, UniProt O31266, C69S/H251A).
T1 construct: full-length HOD C69S in pQE30 (His-tag vector, Ni column); ~31 kDa monomer
In words: X-ray crystal structure, […] Å, crystal soaked with QND. The format is binding. The conditions noted are these: 2 mM QND soak about 2 h, pH 7.0; active site.

The target of data set [2] is T2, HOD (WT HOD = HOD C69S); (1H)-3-hydroxy-4-oxoquinaldine 2,4-dioxygenase (Paenarthrobacter nitroguajacolicus, UniProt O31266, C69S).
T2 construct: full-length HOD C69S in pQE30 (His-tag vector, Ni column); ~31 kDa monomer
In words: anaerobic stopped-flow, QND deprotonation at […] nm, kobs vs [QND] fit. Type of data set: binding.

The subject of another data set is Cc1[nH]c2ccccc2c(=O)c1O. In words: purified protein. Type of data set: biochemical, Paenarthrobacter nitroguajacolicus. To be noted: pH 6.5, air-saturated 0.1 M MTE, 5 mM NaCl, 2 mM EDTA, 20 °C, O2 co-substrate, also measured at pH 10.5.

T1 sequence (O31266 whole entry C69S/H251A): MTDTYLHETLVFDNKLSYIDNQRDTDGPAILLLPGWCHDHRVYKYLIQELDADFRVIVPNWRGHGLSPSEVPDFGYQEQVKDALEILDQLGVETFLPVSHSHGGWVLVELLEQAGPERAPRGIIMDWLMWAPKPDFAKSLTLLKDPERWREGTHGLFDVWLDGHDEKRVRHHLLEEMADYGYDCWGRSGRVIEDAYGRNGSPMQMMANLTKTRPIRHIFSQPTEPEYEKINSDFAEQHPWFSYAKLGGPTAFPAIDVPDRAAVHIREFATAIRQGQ
T2 sequence (O31266 whole entry C69S): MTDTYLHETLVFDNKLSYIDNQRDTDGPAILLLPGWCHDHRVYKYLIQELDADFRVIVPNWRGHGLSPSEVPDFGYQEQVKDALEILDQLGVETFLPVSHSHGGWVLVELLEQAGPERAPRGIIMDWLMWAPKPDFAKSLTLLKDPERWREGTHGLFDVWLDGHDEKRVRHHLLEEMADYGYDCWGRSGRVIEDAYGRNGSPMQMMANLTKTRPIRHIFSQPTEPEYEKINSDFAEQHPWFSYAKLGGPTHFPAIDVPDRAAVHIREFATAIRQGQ

With `Cc1[nH]c2ccccc2c(=O)c1O` [QND, (1H)-3-hydroxy-4-oxoquinaldine], the “X-ray crystal structure, 1.95 Å, crystal soaked with QND” value in data set [1] is “we solved the x-ray structure of this variant in complex with the QND substrate”. For the same compound, in data set [2], the dissociation constant (Kd) (in general, the constant that tells how readily two partners part at equilibrium) worked out at 214 ± 9 µM.
Consider “HOD (WT HOD = HOD C69S); (1H)-3-hydroxy-4-oxoquinaldine 2,4-dioxygenase (Paenarthrobacter nitroguajacolicus; C69S)”, for which, in the data set with Cc1[nH]c2ccccc2c(=O)c1O, the Michaelis-Menten constant (Km) – broadly, the substrate concentration at which the rate is half of its maximum – is 3.2 ± 0.1 µM; the kcat (as a rule, the number of substrate molecules converted per active site and unit of time at saturation) worked out at 16.3 ± 0.1 s⁻¹.
The corresponding values for “HOD (WT HOD = HOD C69S); (1H)-3-hydroxy-4-oxoquinaldine 2,4-dioxygenase (Paenarthrobacter nitroguajacolicus; C69S/D126A)” are 20.9 ± 0.6 µM and 0.19 ± 0.01 s⁻¹.
For “HOD (WT HOD = HOD C69S); (1H)-3-hydroxy-4-oxoquinaldine 2,4-dioxygenase (Paenarthrobacter nitroguajacolicus; C69S/H251A)”, in that order: 58.9 ± 14.6 µM and 0.0006 ± 0.0001 s⁻¹.
